Data published in patent US20140087993A1 (TUFTS MEDICAL CENTER, published 2014).
* marks the point of attachment. Palmitoyl = CCCCCCCCCCCCCCCC(=O)*

T1: protease-activated receptor 1 (PAR1), on cells (human, UniProt P25116 42-425)
T1 sequence (looked up): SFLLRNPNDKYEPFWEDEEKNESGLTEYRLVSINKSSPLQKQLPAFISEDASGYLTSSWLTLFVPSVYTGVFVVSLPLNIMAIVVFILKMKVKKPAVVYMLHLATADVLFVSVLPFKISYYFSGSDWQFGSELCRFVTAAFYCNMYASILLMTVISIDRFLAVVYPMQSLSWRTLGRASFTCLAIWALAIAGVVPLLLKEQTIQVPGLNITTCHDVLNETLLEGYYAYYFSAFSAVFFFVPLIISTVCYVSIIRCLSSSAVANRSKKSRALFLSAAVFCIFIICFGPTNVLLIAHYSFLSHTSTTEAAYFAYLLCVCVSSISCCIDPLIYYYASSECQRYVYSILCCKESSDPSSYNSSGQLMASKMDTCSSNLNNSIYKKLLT


Key:
[1] = molecular target: protease-activated receptor-2 (PAR2), wild type, on cells (human, UniProt P55085 37-397); experiment: cell-based or functional assay
[2] = molecular target: T1, protease-activated receptor 1 (PAR1), …; experiment: cell-based or functional assay

IC50, Ca++ mobilization by SFLLRN in human platelets [2] [µM]	calcium flux in SW620 cells, antagonist activity against SLIGRL [1] [% inhibition]	IC50, thrombin-induced ERK1/2 phosphorylation in A549 cells [2] [µM]	Binder	also measured
–	–	–	Palmitoyl-GDENSEKKRKQAIK-NH2 (SMILES CCCCCCCCCCCCCCCC(=O)NCC(=O)N[C@@H](CC(=O)O)C(=O)N[C@@H](CCC(=O)O)C(=O)N[C@@H](CC(N)=O)C(=O)N[C@@H](CO)C(=O)N[C@@H](CCC(=O)O)C(=O)N[C@@H](CCCCN)C(=O)N[C@@H](CCCCN)C(=O)N[C@@H](CCCNC(=N)N)C(=O)N[C@@H](CCCCN)C(=O)N[C@@H](CCC(N)=O)C(=O)N[C@@H](C)C(=O)N[C@H](C(=O)N[C@@H](CCCCN)C(N)=O)[C@@H](C)CC) [P2pal-14GQ]	IC50, calcium flux induced by 30 µM SLIGRL in SW620 cells [1]: 8 mM
1.3	–	–	Palmitoyl-ILKMKVKKPAV-NH2 (SMILES CCCCCCCCCCCCCCCC(=O)N[C@H](C(=O)N[C@@H](CC(C)C)C(=O)N[C@@H](CCCCN)C(=O)N[C@@H](CCSC)C(=O)N[C@@H](CCCCN)C(=O)N[C@H](C(=O)N[C@@H](CCCCN)C(=O)N[C@@H](CCCCN)C(=O)N1CCC[C@H]1C(=O)N[C@@H](C)C(=O)N[C@H](C(N)=O)C(C)C)C(C)C)[C@@H](C)CC) [P1pal-i1-11]	–
–	29	–	Palmitoyl-RSSAMDENSEKKRKQAIK-NH2 (SMILES CCCCCCCCCCCCCCCC(=O)N[C@@H](CCCNC(=N)N)C(=O)N[C@@H](CO)C(=O)N[C@@H](CO)C(=O)N[C@@H](C)C(=O)N[C@@H](CCSC)C(=O)N[C@@H](CC(=O)O)C(=O)N[C@@H](CCC(=O)O)C(=O)N[C@@H](CC(N)=O)C(=O)N[C@@H](CO)C(=O)N[C@@H](CCC(=O)O)C(=O)N[C@@H](CCCCN)C(=O)N[C@@H](CCCCN)C(=O)N[C@@H](CCCNC(=N)N)C(=O)N[C@@H](CCCCN)C(=O)N[C@@H](CCC(N)=O)C(=O)N[C@@H](C)C(=O)N[C@H](C(=O)N[C@@H](CCCCN)C(N)=O)[C@@H](C)CC) [P2pal-18Q]	–
0.55	–	0.2	Palmitoyl-KKSRALF-NH2 [P1pal-7]	–
0.7	–	0.8	Palmitoyl-NRSKKSSALF-NH2 (SMILES CCCCCCCCCCCCCCCC(=O)N[C@@H](CC(N)=O)C(=O)N[C@@H](CCCNC(=N)N)C(=O)N[C@@H](CO)C(=O)N[C@@H](CCCCN)C(=O)N[C@@H](CCCCN)C(=O)N[C@@H](CO)C(=O)N[C@@H](CO)C(=O)N[C@@H](C)C(=O)N[C@@H](CC(C)C)C(=O)N[C@@H](Cc1ccccc1)C(N)=O) [P1pal-10S]	–
–	77	–	Palmitoyl-RSSAMDENSEKKRKSAIK-NH2 (SMILES CCCCCCCCCCCCCCCC(=O)N[C@@H](CCCNC(=N)N)C(=O)N[C@@H](CO)C(=O)N[C@@H](CO)C(=O)N[C@@H](C)C(=O)N[C@@H](CCSC)C(=O)N[C@@H](CC(=O)O)C(=O)N[C@@H](CCC(=O)O)C(=O)N[C@@H](CC(N)=O)C(=O)N[C@@H](CO)C(=O)N[C@@H](CCC(=O)O)C(=O)N[C@@H](CCCCN)C(=O)N[C@@H](CCCCN)C(=O)N[C@@H](CCCNC(=N)N)C(=O)N[C@@H](CCCCN)C(=O)N[C@@H](CO)C(=O)N[C@@H](C)C(=O)N[C@H](C(=O)N[C@@H](CCCCN)C(N)=O)[C@@H](C)CC) [P2pal-18S pepducin]	–
